From patent US20190048071A1 (MorphoSys, published 2019)
Positions count from the first letter of the chain named. Read-outs that look alike come from different tables or passages of the source. Each block holds one binder with its values, some of them ahead of it.

Columns and labels:
Human IL-17C [1] = target: T1, Human IL-17C (human, UniProt Q9P0M4 19-197, biotinylated in the receptor inhibition assay (ECL biotinylation module)); experiment: cell-based or functional assay
T1 sequence: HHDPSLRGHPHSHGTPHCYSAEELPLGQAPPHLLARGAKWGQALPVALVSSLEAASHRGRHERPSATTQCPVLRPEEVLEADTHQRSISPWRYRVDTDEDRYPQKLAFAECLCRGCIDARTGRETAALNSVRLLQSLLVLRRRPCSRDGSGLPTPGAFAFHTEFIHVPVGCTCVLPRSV

Mouse IL-17C [2] = target: T2, Mouse IL-17C (mouse, UniProt Q8K4C5 17-194, biotinylated in the receptor inhibition assay (ECL biotinylation module)); experiment: cell-based or functional assay
T2 sequence: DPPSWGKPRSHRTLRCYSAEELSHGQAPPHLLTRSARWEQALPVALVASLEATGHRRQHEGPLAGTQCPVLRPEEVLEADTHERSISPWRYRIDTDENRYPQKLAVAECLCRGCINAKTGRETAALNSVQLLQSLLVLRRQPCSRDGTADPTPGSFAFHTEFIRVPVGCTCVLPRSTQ

Cynomolgus monkey IL-17C [3] = target: T3, Cynomolgus monkey IL-17C (cynomolgus monkey, UniProt Q9P0M4 19-197 (human entry), limits assumed, biotinylated in the receptor inhibition assay (ECL biotinylation module)); experiment: cell-based or functional assay
T3 chain: T1 sequence with H2Q, S5F, S12T, H17R, S56G, G59R, E62D, T67A, A119P, H166R

Human IL-17C [4] = target: T1, Human IL-17C; experiment: SET (solution equilibrium titration, ECL based), apparent affinity, bivalent IgG
Text: (§1) Solution equilibrium titration (SET) was basically performed as described in the literature (Friquet et al., (1985) J. Immunol. Meth. 77: 305-19). In order to improve the sensitivity and accuracy of the SET method, it was transferred from classical ELISA to ECL based technology (Haenel et al. (2005) Anal Biochem. 339.1: 182-84).

Mouse IL-17C [5] = target: T2, Mouse IL-17C; experiment: as above
Text: as §1

Cynomolgus monkey IL-17C [6] = target: T3, Cynomolgus monkey IL-17C; experiment: as above
Text: as §1

Human IL-17C [7] = target: T1, Human IL-17C; experiment: MSD receptor inhibition assay, IgG format: IgG pre-incubated with biotinylated human IL-17C, binding to coated mouse IL17RE/Fc
Description: (§2) Purified IL-17C specific Fabs or IgGs, respectively were tested for its capacity to inhibit the binding of IL-17C to its specific receptor IL-17RE. Therefore MA6000 384-well plates (Meso Scale Discovery, MSD) were coated with 30 μl of mouse IL17RE/Fc chimeric protein at 75 ng/ml in PBS at 4° C. overnight. The next day a serial antibody dilution (concentrations from 0.001 to 100 nM) were pre-incubated for 30 min at RT with an equal volume of biotinylated human/cynomolgus or mouse IL-17C to determine an IC₅₀ concentration for receptor binding inhibition. After blocking of plates for 1 h with 2.5% BSA in PBST, previously formed antibody-ligand complexes were added for 1 h to coated IL17RE/Fc and receptor binding was detected via Streptavidin-ECL using MSD Sector Imager.
(§3) Results are shown in rows 3 and 4 in Table 2 and Table 3 respectively.

Mouse IL-17C [8] = target: T2, Mouse IL-17C; experiment: MSD receptor inhibition assay, IgG format: IgG pre-incubated with biotinylated mouse IL-17C, binding to coated mouse IL17RE/Fc
Description: as §2, §3

Cynomolgus monkey IL-17C [9] = target: T3, Cynomolgus monkey IL-17C; experiment: MSD receptor inhibition assay, IgG format: IgG pre-incubated with biotinylated cynomolgus IL-17C, binding to coated mouse IL17RE/Fc
Description: as §2, §3

Human IL-17C [10] = target: T1, Human IL-17C; experiment: SET (solution equilibrium titration, ECL based), monovalent affinity, Fab
Text: as §1

Mouse IL-17C [11] = target: T2, Mouse IL-17C; experiment: as above
Text: as §1

Cynomolgus monkey IL-17C [12] = target: T3, Cynomolgus monkey IL-17C; experiment: as above
Text: as §1

Human IL-17C [13] = target: T1, Human IL-17C; experiment: MSD receptor inhibition assay, Fab format: Fab pre-incubated with biotinylated human IL-17C, binding to coated mouse IL17RE/Fc
Description: as §2, §3

Mouse IL-17C [14] = target: T2, Mouse IL-17C; experiment: MSD receptor inhibition assay, Fab format: Fab pre-incubated with biotinylated mouse IL-17C, binding to coated mouse IL17RE/Fc
Description: as §2

Cynomolgus monkey IL-17C [15] = target: T3, Cynomolgus monkey IL-17C; experiment: MSD receptor inhibition assay, Fab format: Fab pre-incubated with biotinylated cynomolgus IL-17C, binding to coated mouse IL17RE/Fc
Description: as §2, §3

Human IL-17C [16] = target: T1, Human IL-17C; experiment: cell-based or functional assay; remark: listed apart in the source
Mouse IL-17C [17] = target: T2, Mouse IL-17C; experiment: cell-based or functional assay; remark: listed apart in the source
Cynomolgus monkey IL-17C [18] = target: T3, Cynomolgus monkey IL-17C; experiment: cell-based or functional assay
Cynomolgus monkey IL-17C [19] = target: T3, Cynomolgus monkey IL-17C; experiment: MSD receptor inhibition assay, Fab format: Fab pre-incubated with biotinylated cynomolgus IL-17C, binding to coated mouse IL17RE/Fc
Description: as §2

B1: MAB#1 IgG1 (antibody, V domains shown)
VH: EVQLLESGGGLVQPGGSLRLSCAASGFTVSDYAMHWVRQAPGKGLEWVSYIGGVGEGTQYAESVKGRFTISRDNSKNTLYLQMNSLRAEDTAVYYCARGFAIRYYGFDYWGQGTLVTVSS
VL: SYELTQPPSVSVSPGQTASITCSGDKLGDKYAYWYQQKPGQSPVLVIYQDSKRPSGIPERFSGSNSGNTATLTISGTQAEDEADYYCQVFTFPLVTTVFGGGTKLTVLG
notes: Human IgG1 with lambda light chain from the Ylanthia library
- Keratinocyte assay (IC50; DEFB4A gene expression in primary human keratinocytes stimulated with hIL-17C and TNFα) (Human IL-17C [1]): 0.319 nM
- NF-κB reporter assay (IC50) (Human IL-17C [1]): 0.0313 nM
- Keratinocyte assay (IC50; CSF3 gene expression in mouse primary keratinocytes) (Mouse IL-17C [2]): 0.112 nM
- NF-κB reporter assay (IC50) (Mouse IL-17C [2]): 0.0476 nM
- NF-κB reporter assay (IC50) (Cynomolgus monkey IL-17C [3]): 0.0128 nM
- EC50 (Human IL-17C [4]): 0.019 nM
- EC50 (Mouse IL-17C [5]): 0.387 nM
- EC50 (Cynomolgus monkey IL-17C [6]): 0.257 nM
- IC50 (Human IL-17C [7]): 0.059 nM
- IC50 (Mouse IL-17C [8]): 0.055 nM
- IC50 (Cynomolgus monkey IL-17C [9]): 0.044 nM

B2: MAB#1 Fab (Fab, V domains shown)
VH: B1 VH
VL: B1 VL
notes: Purified monovalent Fab; also called MAB#1 (Fab format)
- Kd (Human IL-17C [10]): 3.95 nM
- Kd (Mouse IL-17C [11]): 28 nM
- Kd (Cynomolgus monkey IL-17C [12]): 22 nM
- IC50 (Human IL-17C [13]): 2.9 nM
- IC50 (Mouse IL-17C [14]): 6 nM
- IC50 (Cynomolgus monkey IL-17C [15]): 2.7 nM

Further lines, results first:

- Keratinocyte assay (IC50; DEFB4A gene expression in primary human keratinocytes stimulated with hIL-17C and TNFα) (Human IL-17C [16]): 0.28 nM
- NF-κB reporter assay (IC50) (Human IL-17C [16]): 0.0185 nM
- Keratinocyte assay (IC50; CSF3 gene expression in mouse primary keratinocytes) (Mouse IL-17C [17]): 0.051 nM
- NF-κB reporter assay (IC50) (Mouse IL-17C [17]): 0.0648 nM
- NF-κB reporter assay (IC50) (Cynomolgus monkey IL-17C [18]): 0.0129 nM
- EC50 (Human IL-17C [4]): 0.016 nM
- EC50 (Mouse IL-17C [5]): 0.323 nM
- IC50 (Human IL-17C [7]): 0.058 nM
- IC50 (Mouse IL-17C [8]): 0.048 nM
- IC50 (Cynomolgus monkey IL-17C [9]): 0.057 nM
B3: MAB#2 IgG1 (antibody, V domains shown)
VH: QVQLVESGGGLVKPGGSLRLSCAASGFTFSDHYISWIRQAPGKGLEWVSYISSSGSTTYYAESVKGRFTISRDNAKNSLYLQMNSLRAEDTAVYYCARQSYYFLPYFDVWGQGTLVTVSS
VL: QSALTQPASVSGSPGQSITISCTGTSSDVGSYNLVSWYQQHPGKAPKLMIYEGSKRPSGVSNRFSGSKSGNTASLTISGLQAEDEADYYCASRGSRRVLYVFGGGTKLTVLG
notes: as for B1

- Kd (Human IL-17C [10]): 0.037 nM
- Kd (Mouse IL-17C [11]): 0.46 nM
- Kd (Cynomolgus monkey IL-17C [12]): 0.063 nM
- IC50 (Human IL-17C [13]): 0.076 nM
- IC50 (Mouse IL-17C [14]): 0.15 nM
- IC50 (Cynomolgus monkey IL-17C [19]): 0.05 nM
B4: MAB#2 Fab (Fab, V domains shown)
VH: B3 VH
VL: B3 VL
notes: Purified monovalent Fab; also called MAB#2 (Fab format)
